Experimental data as given in PMC8602292, “Acyl carrier protein promotes MukBEF action in Escherichia coli chromosome organization-segregation” (Nature Communications, 2021).

T1: MukB^K1114E (Escherichia coli, UniProt P22523 1-1486, K1114E)
T1 construct: E. coli MukB with K1114E; Mutant of the whole MukB-His as far as the text tells; source: E. coli FL01 (mukB 3xFLAG C3013I), purified (TALON, HiTrap Heparin, Superdex 200); not shown: His tag, C-terminal, kept
T1 sequence (looked up): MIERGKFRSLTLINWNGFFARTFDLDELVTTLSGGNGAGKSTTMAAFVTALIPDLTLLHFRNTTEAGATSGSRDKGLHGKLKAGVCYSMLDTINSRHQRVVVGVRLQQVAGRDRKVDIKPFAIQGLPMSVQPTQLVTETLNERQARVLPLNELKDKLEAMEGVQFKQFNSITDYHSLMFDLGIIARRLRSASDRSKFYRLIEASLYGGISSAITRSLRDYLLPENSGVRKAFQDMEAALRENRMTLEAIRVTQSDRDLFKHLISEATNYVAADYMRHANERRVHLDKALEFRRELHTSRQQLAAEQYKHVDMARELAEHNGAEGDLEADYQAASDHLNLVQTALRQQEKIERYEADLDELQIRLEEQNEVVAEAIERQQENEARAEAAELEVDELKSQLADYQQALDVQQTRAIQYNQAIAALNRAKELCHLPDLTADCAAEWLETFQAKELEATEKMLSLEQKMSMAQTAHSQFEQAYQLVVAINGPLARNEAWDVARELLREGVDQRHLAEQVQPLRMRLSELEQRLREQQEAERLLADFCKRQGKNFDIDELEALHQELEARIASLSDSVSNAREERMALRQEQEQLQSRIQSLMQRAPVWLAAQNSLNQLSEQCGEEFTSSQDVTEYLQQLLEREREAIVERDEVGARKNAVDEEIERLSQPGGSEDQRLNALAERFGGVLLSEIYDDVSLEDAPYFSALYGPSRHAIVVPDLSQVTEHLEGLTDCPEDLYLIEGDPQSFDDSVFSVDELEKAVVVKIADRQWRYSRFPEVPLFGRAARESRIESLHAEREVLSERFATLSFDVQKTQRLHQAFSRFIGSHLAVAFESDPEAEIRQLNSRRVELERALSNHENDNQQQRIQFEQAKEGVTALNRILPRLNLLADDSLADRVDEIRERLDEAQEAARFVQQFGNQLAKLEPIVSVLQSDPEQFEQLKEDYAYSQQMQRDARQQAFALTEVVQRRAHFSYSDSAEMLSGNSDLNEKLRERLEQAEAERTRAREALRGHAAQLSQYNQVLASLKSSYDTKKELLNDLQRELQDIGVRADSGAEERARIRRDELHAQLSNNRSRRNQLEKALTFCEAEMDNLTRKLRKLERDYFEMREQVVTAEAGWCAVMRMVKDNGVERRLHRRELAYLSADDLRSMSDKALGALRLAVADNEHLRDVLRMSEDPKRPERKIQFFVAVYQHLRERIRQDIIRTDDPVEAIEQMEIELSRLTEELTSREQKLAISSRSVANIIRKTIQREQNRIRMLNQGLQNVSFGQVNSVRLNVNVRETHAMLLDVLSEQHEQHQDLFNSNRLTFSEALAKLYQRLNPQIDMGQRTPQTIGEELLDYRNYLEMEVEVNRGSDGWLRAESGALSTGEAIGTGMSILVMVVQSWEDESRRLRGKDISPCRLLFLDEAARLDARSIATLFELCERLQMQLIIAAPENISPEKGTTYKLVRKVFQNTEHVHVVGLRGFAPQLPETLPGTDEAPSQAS

B1: MukE (MukE-His) (natural protein, Escherichia coli, UniProt P22524 1-234, looked up)
chain: MSSTNIEQVMPVKLAQALANPLFPALDSALRSGRHIGLDELDNHAFLMDFQEYLEEFYARYNVELIRAPEGFFYLRPRSTTLIPRSVLSELDMMVGKILCYLYLSPERLANEGIFTQQELYDELLTLADEAKLLKLVNNRSTGSDVDRQKLQEKVRSSLNRLRRLGMVWFMGHDSSKFRITESVFRFGADVRAGDDPREAQRRLIRDGEAMPIENHLQLNDETEENQPDSGEEE
notes: MukE, the KITE protein of Escherichia coli MukBEF; The end of the tag is read from the printed name 'MukE-His'; also called KITE protein MukE; source: E. coli C3013I (NEB), pET vector, purified (TALON, HiTrap DEAE FF, Superdex 200)
B2: MukF (His-MukF) (natural protein, Escherichia coli, UniProt P60293 1-440, looked up)
chain: MSEFSQTVPELVAWARKNDFSISLPVDRLSFLLAVATLNGERLDGEMSEGELVDAFRHVSDAFEQTSETIGVRANNAINDMVRQRLLNRFTSEQAEGNAIYRLTPLGIGITDYYIRQREFSTLRLSMQLSIVAGELKRAADAAEEGGDEFHWHRNVYAPLKYSVAEIFDSIDLTQRLMDEQQQQVKDDIAQLLNKDWRAAISSCELLLSETSGTLRELQDTLEAAGDKLQANLLRIQDATMTHDDLHFVDRLVFDLQSKLDRIISWGQQSIDLWIGYDRHVHKFIRTAIDMDKNRVFAQRLRQSVQTYFDEPWALTYANADRLLDMRDEEMALRDEEVTGELPEDLEYEEFNEIREQLAAIIEEQLAVYKTRQVPLDLGLVVREYLSQYPRARHFDVARIVIDQAVRLGVAQADFTGLPAKWQPINDYGAKVQAHVIDKY
notes: MukF, the kleisin of Escherichia coli MukBEF; The end of the tag is read from the printed name 'His-MukF'; also called kleisin MukF; source: E. coli C3013I (NEB), pET vector, purified (TALON, HiTrap DEAE FF, Superdex 200)

Target: T1, MukB^K1114E
Assay: native gel or EMSA; BN-PAGE; MukB or MukB^HN (0-4.5 μM) with MukF (1.5 μM), MukE (3 μM) and AcpP as indicated or none; 1 mM DTT, 1 mM MgCl2, 30 min at 22 °C; 3-12% native Bis-Tris gels; AMPPNP in some samples
Conditions: both partners purified

binding result | Binder
binds | B1
binds | B2
